Measurements as given in patent US20030148958A1 (PROCTER AND GAMBLE, published 2003).
Ends that are not written are not given here.

T1: CRF2R
T1 sequence (Q13324 whole entry, species assumed, looked up): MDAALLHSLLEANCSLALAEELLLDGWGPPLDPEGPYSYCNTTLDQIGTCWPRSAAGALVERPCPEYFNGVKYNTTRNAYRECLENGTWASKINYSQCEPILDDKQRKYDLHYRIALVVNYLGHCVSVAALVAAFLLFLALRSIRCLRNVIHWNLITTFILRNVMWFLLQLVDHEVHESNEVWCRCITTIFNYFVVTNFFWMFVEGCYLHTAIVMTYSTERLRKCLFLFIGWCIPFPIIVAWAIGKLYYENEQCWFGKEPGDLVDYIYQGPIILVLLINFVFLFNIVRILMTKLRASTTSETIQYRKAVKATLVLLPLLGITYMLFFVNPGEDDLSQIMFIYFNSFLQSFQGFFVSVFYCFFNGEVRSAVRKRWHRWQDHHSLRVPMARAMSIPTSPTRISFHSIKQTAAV


biological target: T1, CRF2R; experiment: cell-based or functional assay
For CRF1R Emax % in this document: reference of the scale not given here.
For CRF2R Emax % in this document: reference of the scale not given here.

Binder | CRF2R EC50 | CRF2R Emax %
ZGPPISIDLPYWLLRKMIEIEKQEKEKQQAANNALLLDTI (C-terminal amide) [SEQ ID NO 310] | 8.7 nM | 87.5%
ZGPPISIDLPFFLLRKVIEIEKQEKEKQQAANNALLLDTI (C-terminal amide) [SEQ ID NO 316] | 10.2 nM | 94.5%
ZGPPISIDLPFFLLRKMIEIEKQEKEKQQAANNALLLATI (C-terminal amide) [SEQ ID NO 319] | 8.5 nM | 95%
ZGPPISIDLPYHLLRKMIEIEKQEKEKQQAANNALLLDTI (C-terminal amide) [SEQ ID NO 314] | 10.3 nM | 99.8%
ZGPPISIDLPFFLLRKVIEIEKQEKEKQQAANNALLLATI (C-terminal amide) [SEQ ID NO 317] | 9.3 nM | 88.3%
ZGPPISIDLPYHLLRKVIEIEKQEKEKQQAANNALLLDTI (C-terminal amide) [SEQ ID NO 312] | 14.1 nM | 95%
ZGPPISIDLPYWLLRKVIEIEKQEKEKQQAANNALLLDTI (C-terminal amide) [SEQ ID NO 311] | 11.7 nM | 100%
ZGPPISIDLPYHLLRKVIEIEKQEKEKQQAANNALLLATI (C-terminal amide) [SEQ ID NO 313] | 11.1 nM | 95%
ZGPPISIDLPFFLLRKMIEIEKQEKEKQQAANNALLLDTI (C-terminal amide) [SEQ ID NO 318] | 9.95 nM | 95.4%
DNPSLSIDLPQYLLRTLLELARTQSQRERAEQNAIIFASV-NH2 [SEQ ID NO 339] | 100 nM | 47.9%
DNPSLSIDLPLFLLRTLLELEKTQSQRERAEQNARIFDRV-NH2 [SEQ ID NO 336] | 17.8 nM | 100%
IVLSLDVPIGLLQKMIEIEKQEKEKQQATTNARILARV-NH2 [SEQ ID NO 322] | 23.1 nM | 96.5%
ZGPPISIDLPLQLLRKVIEIEKQEKEKQQATTNARILARV (C-terminal amide) [SEQ ID NO 320] | 19.1 nM | 100%
ZGPPISIDLPFQLLRKTIEIEKQEKEKQQATTNARLLDRV (C-terminal amide) [SEQ ID NO 321] | 19.6 nM | 86.8%
DNPSLSIDLPLLLLRTLLELEKTQSQRERAEQNAQIFAQV-NH2 [SEQ ID NO 327] | 28.4 nM | 100%
PSLSIDLPLFLLRTLLELEKTQSQRERAEQNARIFARV-NH2 [SEQ ID NO 331] | 9.85 nM | 100%
PSLSIDLPLILLRTLLELEKTQSQRERAEQNARIFARV-NH2 [SEQ ID NO 332] | 9.95 nM | 100%
DNPSLSIDLPLILLRTLLELEKTQSQRERAEQNARIFDRV-NH2 [SEQ ID NO 337] | 23.9 nM | 86.7%
DNPSLSIDLPLLLLRTLLELEKTQSQRERAEQNARIFDRV-NH2 [SEQ ID NO 338] | 19.3 nM | 77.5%
DNPSLSIDLPLLLLRTLLELEKTQSQRERAEQNAHIFAHV-NH2 [SEQ ID NO 328] | 11.7 nM | 95.7%
DNPSLSIDLPLFLLRTLLELEKTQSQRERAEQNARIFARV-NH2 [SEQ ID NO 334] | 13.2 nM | 93.5%
DNPSLSIDLPLILLRTLLELARTQSQRERAEQNARIFARV-NH2 [SEQ ID NO 330] | 6 nM | 93.7%
DNPSLSIDLPLLLLRTLLELEKTQSQRERAEQNAQIFAHV-NH2 [SEQ ID NO 324] | 17.2 nM | 100%
DNPSLSIDLPLFLLRTLLELARTQSQRERAEQNARIFARV-NH2 [SEQ ID NO 329] | 5.15 nM | 98.3%
DNPSLSIDLPLILLRTLLELEKTQSQRERAEQNARIFARV-NH2 [SEQ ID NO 335] | 28.1 nM | 91%
PSLSIDLPLLLLRTLLELEKTQSQRERAEQNARIFARV-NH2 [SEQ ID NO 333] | 9.85 nM | 96.9%
DNPSLSIDLPLLLLRTLLELEKTQSQRERAEQNANIFANV-NH2 [SEQ ID NO 326] | 33.7 nM | 100%
ZGPPISIDLPYHLLRKMIEIEKQEKEKQQAANNALLLAT (C-terminal amide) [SEQ ID NO 315] | 9.35 nM | 81.7%
DNPSLSIDLPLLLLRTLLELEKTQSQRERAEQNAEIFAEV-NH2 [SEQ ID NO 323] | 19.6 nM | 100%
IVLSLDVPIGLLQILLEQEKARAAREQATTNARILARV-NH2 [SEQ ID NO 325] | 11.7 nM | 100%

biological target: CRF1R; experiment: cell-based or functional assay

Binder | CRF1R EC50 | CRF1R Emax %
ZGPPISIDLPYWLLRKMIEIEKQEKEKQQAANNALLLDTI (C-terminal amide) [SEQ ID NO 310] | 1000 nM | 45.3%
ZGPPISIDLPFFLLRKVIEIEKQEKEKQQAANNALLLDTI (C-terminal amide) [SEQ ID NO 316] | 222 nM | 92.3%
ZGPPISIDLPFFLLRKMIEIEKQEKEKQQAANNALLLATI (C-terminal amide) [SEQ ID NO 319] | 106 nM | 88.3%
ZGPPISIDLPYHLLRKMIEIEKQEKEKQQAANNALLLDTI (C-terminal amide) [SEQ ID NO 314] | 978 nM | 82.4%
ZGPPISIDLPFFLLRKVIEIEKQEKEKQQAANNALLLATI (C-terminal amide) [SEQ ID NO 317] | 188 nM | 100%
ZGPPISIDLPYHLLRKVIEIEKQEKEKQQAANNALLLDTI (C-terminal amide) [SEQ ID NO 312] | 870 nM | 62%
ZGPPISIDLPYWLLRKVIEIEKQEKEKQQAANNALLLDTI (C-terminal amide) [SEQ ID NO 311] | 1000 nM | 29.7%
ZGPPISIDLPYHLLRKVIEIEKQEKEKQQAANNALLLATI (C-terminal amide) [SEQ ID NO 313] | 704 nM | 87.1%
ZGPPISIDLPFFLLRKMIEIEKQEKEKQQAANNALLLDTI (C-terminal amide) [SEQ ID NO 318] | 134 nM | 92.8%
DNPSLSIDLPQYLLRTLLELARTQSQRERAEQNAIIFASV-NH2 [SEQ ID NO 339] | 1000 nM | 13.2%
DNPSLSIDLPLFLLRTLLELEKTQSQRERAEQNARIFDRV-NH2 [SEQ ID NO 336] | 1000 nM | 59.9%
IVLSLDVPIGLLQKMIEIEKQEKEKQQATTNARILARV-NH2 [SEQ ID NO 322] | 1000 nM | 10.7%
ZGPPISIDLPLQLLRKVIEIEKQEKEKQQATTNARILARV (C-terminal amide) [SEQ ID NO 320] | 718 nM | 68.8%
ZGPPISIDLPFQLLRKTIEIEKQEKEKQQATTNARLLDRV (C-terminal amide) [SEQ ID NO 321] | 1000 nM | 33.8%
DNPSLSIDLPLLLLRTLLELEKTQSQRERAEQNAQIFAQV-NH2 [SEQ ID NO 327] | 1000 nM | 36.5%
PSLSIDLPLFLLRTLLELEKTQSQRERAEQNARIFARV-NH2 [SEQ ID NO 331] | 1000 nM | 78.7%
PSLSIDLPLILLRTLLELEKTQSQRERAEQNARIFARV-NH2 [SEQ ID NO 332] | 1000 nM | 61.3%
DNPSLSIDLPLILLRTLLELEKTQSQRERAEQNARIFDRV-NH2 [SEQ ID NO 337] | 1000 nM | 36.5%
DNPSLSIDLPLLLLRTLLELEKTQSQRERAEQNARIFDRV-NH2 [SEQ ID NO 338] | 1000 nM | 41.1%
DNPSLSIDLPLLLLRTLLELEKTQSQRERAEQNAHIFAHV-NH2 [SEQ ID NO 328] | 1000 nM | 30.7%
DNPSLSIDLPLFLLRTLLELEKTQSQRERAEQNARIFARV-NH2 [SEQ ID NO 334] | 1000 nM | 82.6%
DNPSLSIDLPLILLRTLLELARTQSQRERAEQNARIFARV-NH2 [SEQ ID NO 330] | 1000 nM | 86.8%
DNPSLSIDLPLLLLRTLLELEKTQSQRERAEQNAQIFAHV-NH2 [SEQ ID NO 324] | 1000 nM | 46.6%
DNPSLSIDLPLFLLRTLLELARTQSQRERAEQNARIFARV-NH2 [SEQ ID NO 329] | 1000 nM | 98.4%
DNPSLSIDLPLILLRTLLELEKTQSQRERAEQNARIFARV-NH2 [SEQ ID NO 335] | 1000 nM | 49.5%
PSLSIDLPLLLLRTLLELEKTQSQRERAEQNARIFARV-NH2 [SEQ ID NO 333] | 1000 nM | 43.8%
DNPSLSIDLPLLLLRTLLELEKTQSQRERAEQNANIFANV-NH2 [SEQ ID NO 326] | 1000 nM | 30.1%
ZGPPISIDLPYHLLRKMIEIEKQEKEKQQAANNALLLAT (C-terminal amide) [SEQ ID NO 315] | 454 nM | 100%
DNPSLSIDLPLLLLRTLLELEKTQSQRERAEQNAEIFAEV-NH2 [SEQ ID NO 323] | 1000 nM | 36.9%
IVLSLDVPIGLLQILLEQEKARAAREQATTNARILARV-NH2 [SEQ ID NO 325] | 100 nM | 5%
